The text below walks through data of PMC3724350.

Assay [1] addresses Shewanella oneidensis diheme cytochrome c peroxidase, maltose-binding protein fusion (Shewanella oneidensis). The experiment in a line: SEC. In general terms: In gel filtration, larger molecules generally elute earlier.
Assay [2] addresses Shewanella oneidensis diheme cytochrome c peroxidase, tag-free (Shewanella oneidensis). Briefly: SEC.

By stoichiometry N is commonly meant the number of molecules, sites or subunits per partner or assembly.

The substance “Shewanella oneidensis diheme cytochrome c peroxidase, maltose-binding protein fusion (enzyme)” returned a stoichiometry N in assay [1] of 2.
In turn, “Shewanella oneidensis diheme cytochrome c peroxidase, tag-free (enzyme)” had a stoichiometry N in assay [2] of 2.
